Data taken from patent US20110206701A1 (AbbVie / Abbott, published 2011).

Molecular target: T1, CS1 (CD2-subset 1) (human, UniProt Q9NQ25 23-335)
T1 construct: whole, on cells; In the immunohistochemistry the protein stood in formalin-fixed, paraffin-embedded tissue sections; also called SLAMF7; CRACC
Experiment: flow cytometry on normal blood NK and NK/T cells, directly conjugated antibody

B1: HuLuc63 (elotuzumab), humanized anti-CS1 antibody (antibody, V domains shown)
VH: EVQLVESGGGLVQPGGSLRLSCAASGFDFSRYWMSWVRQAPGKGLEWIGEINPDSSTINYAPSLKDKFIISRDNAKNSLYLQMNSLRAEDTAVYYCARPDGNYWYFDVWGQGTLVTVSS
VL: DIQMTQSPSSLSASVGDRVTITCKASQDVGIAVAWYQQKPGKVPKLLIYWASTRHTGVPDRFSGSGSGTDFTLTISSLQPEDVATYYCQQYSSYPYTFGQGTKVEIK
Question: Does B1 bind?
Answer: Result: binds
